Broadly, the Km is the concentration of substrate that gives half-maximal velocity.

Substrate in data set [1]: Nc1ncnc2c1ncn2[C@@H]1O[C@H](CO)[C@@H](O)[C@H]1O
The experiment in a line: Vmax for Calf intestinal mucosa adenosine deaminase was determined.

Substrate in data set [2]: Nc1ncnc2c1ncn2[C@@H]1O[C@H](CO)[C@@H](O)[C@H]1O
The experiment in a line: Michaelis-Menten constant for Calf intestinal mucosa adenosine deaminase was determined.

B1: Adenosine deaminase (Bos taurus), P56658 (protein)
chain: MAQTPAFNKPKVELHVHLDGAIKPETILYYGRKRGIALPADTPEELQNIIGMDKPLSLPEFLAKFDYYMPAIAGCREAVKRIAYEFVEMKAKDGVVYVEVRYSPHLLANSKVEPIPWNQAEGDLTPDEVVSLVNQGLQEGERDFGVKVRSILCCMRHQPSWSSEVVELCKKYREQTVVAIDLAGDETIEGSSLFPGHVKAYAEAVKSGVHRTVHAGEVGSANVVKEAVDTLKTERLGHGYHTLEDATLYNRLRQENMHFEVCPWSSYLTGAWKPDTEHPVVRFKNDQVNYSLNTDDPLIFKSTLDTDYQMTKNEMGFTEEEFKRLNINAAKSSFLPEDEKKELLDLLYKAYGMPSPASAEQCL
Take B1: the Vmax (uM min-1 unit-1) in data set [1] amounted to 0.76. Moreover, the Km in data set [2] is 50.5 µM.
